Experimental data from publication PMC9813255 (2023).

Experiments:
Test in all cases: SPR
GST-Atxn1-86Q = target: T1, GST-Atxn1-86Q (UniProt P54253 1-815)
T1 chain: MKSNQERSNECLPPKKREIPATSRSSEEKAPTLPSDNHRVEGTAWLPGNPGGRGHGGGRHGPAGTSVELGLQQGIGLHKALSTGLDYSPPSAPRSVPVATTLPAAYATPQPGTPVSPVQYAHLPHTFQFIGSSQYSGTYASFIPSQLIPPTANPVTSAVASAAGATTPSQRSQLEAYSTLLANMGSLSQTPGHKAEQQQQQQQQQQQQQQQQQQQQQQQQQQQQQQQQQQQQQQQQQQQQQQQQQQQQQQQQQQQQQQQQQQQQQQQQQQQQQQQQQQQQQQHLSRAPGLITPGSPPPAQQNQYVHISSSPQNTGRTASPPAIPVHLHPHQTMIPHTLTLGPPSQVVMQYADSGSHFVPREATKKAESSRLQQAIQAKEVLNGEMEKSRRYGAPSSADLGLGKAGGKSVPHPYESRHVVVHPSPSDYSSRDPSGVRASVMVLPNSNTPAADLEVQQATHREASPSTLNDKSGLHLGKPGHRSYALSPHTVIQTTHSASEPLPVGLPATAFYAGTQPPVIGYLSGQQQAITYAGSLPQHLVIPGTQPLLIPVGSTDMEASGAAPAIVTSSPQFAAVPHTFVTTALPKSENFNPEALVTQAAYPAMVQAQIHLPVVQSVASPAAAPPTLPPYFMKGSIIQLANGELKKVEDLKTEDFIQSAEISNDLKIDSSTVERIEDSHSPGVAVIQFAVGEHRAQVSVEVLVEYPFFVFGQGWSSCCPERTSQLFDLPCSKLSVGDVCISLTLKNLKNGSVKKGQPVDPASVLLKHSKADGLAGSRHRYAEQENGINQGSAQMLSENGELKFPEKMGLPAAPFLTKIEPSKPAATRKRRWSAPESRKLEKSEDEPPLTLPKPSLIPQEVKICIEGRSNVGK

GST-Atxn1-33Q = target: T2, GST-Atxn1-33Q (UniProt P54253 1-815)
T2 chain: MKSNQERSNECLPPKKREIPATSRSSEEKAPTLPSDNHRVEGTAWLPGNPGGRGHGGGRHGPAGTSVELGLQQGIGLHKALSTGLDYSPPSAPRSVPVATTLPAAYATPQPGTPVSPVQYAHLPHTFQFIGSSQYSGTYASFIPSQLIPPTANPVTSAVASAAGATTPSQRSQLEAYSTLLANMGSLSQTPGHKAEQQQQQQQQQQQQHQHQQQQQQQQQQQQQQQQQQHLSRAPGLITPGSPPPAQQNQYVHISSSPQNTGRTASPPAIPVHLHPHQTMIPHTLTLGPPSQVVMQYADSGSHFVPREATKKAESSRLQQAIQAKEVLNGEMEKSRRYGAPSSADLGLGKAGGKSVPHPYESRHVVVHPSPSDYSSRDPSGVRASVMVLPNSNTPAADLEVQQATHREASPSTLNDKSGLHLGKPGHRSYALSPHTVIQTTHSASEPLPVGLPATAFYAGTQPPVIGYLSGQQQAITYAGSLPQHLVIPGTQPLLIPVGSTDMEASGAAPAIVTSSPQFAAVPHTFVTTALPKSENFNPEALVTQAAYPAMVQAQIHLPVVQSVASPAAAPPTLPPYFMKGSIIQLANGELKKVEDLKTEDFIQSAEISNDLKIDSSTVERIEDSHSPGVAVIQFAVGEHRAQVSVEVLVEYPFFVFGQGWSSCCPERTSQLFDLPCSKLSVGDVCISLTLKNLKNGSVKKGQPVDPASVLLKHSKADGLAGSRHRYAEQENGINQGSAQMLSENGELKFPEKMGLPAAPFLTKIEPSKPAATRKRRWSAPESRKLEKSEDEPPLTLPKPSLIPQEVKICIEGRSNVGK

GST-Htt-110Q = target: T3, GST-Htt-110Q
T3 chain: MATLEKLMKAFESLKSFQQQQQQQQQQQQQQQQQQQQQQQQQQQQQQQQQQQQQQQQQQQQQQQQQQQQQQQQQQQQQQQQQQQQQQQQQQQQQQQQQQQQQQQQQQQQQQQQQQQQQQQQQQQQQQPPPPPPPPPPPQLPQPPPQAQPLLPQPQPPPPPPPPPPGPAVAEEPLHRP

B1: PQBP5-Δ1 (protein)
chain: TYQLSLKFERCLDSEVVTFEILSDDYSKIVFLHNDRYIEFHSQSGFYYKTRIPKFGRDFSYHYPSCDLYFVGASSEVYRLNLEQGRYLNPLQTDAAENNVCDINSVHGLFATGTIEGRVECWDPRTRNRVGLLDCALNSVTADSEINSLPTISALKFNGALTMAVGTTTGQVLLYDLRSDKPLLVKDHQYGLPIKSVHFQDSLDLILSADSRIVKMWNKNSGKIFTSLEPEHDLNDVCLYPNSGMLLTANETPKMGIYYIPVLGPAPRWCSFLDNLTEELEENPESTVYDDYKFVTKKDLENLGLTHLIGSPFLRAYMHGFFMDIRLYHKVKLMVNPFAYEEYRKDKIRQKIEETRAQRVQLKKLPKVNKELALKLIEEEEEKQKSTWKKKVKSLPNILTDDRFKVMFENPDFQVDEESEEFRLLNPLVSKISEKRKKKLRLLEQQELREKEEEEEPEGKPSDAESSESSDDEKAWVEEVRKQRRLLQQEEKVKRQERLKEDQQTVLKPQFYEIKAGEEFRSFKDSATKQKLMNKTLEDRLKIEAKNGTLSVSDTTVGSKQLTFTLKRSEQQKKQQEAEKLHRQERKRLRRSAGHLKSRHKRGRSFH
modifications: Delta number assigned from the order of the constructs in the methods; initiator Met from the primer and tag omitted.
- Kd (GST-Atxn1-86Q): 0.294 nM
- Kd (GST-Atxn1-33Q): 0.355 nM

B2: PQBP5-Δ5 (protein)
chain: MQVSSLNEVKIYSLSCGKSLPEWLSDRKKRALQKKDVDVRRRIELIQDFEMPTVCTTIKVSKDGQYILATGTYKPRVRCYDTYQLSLKFERCLDSEVVTFEILSDDYSKIVFLHNDRYIEFHSQSGFYYKTRIPKFGRDFSYHYPSCDLYFVGASSEVYRLNLEQGRYLNPLQTDAAENNVCDINSVHGLFATGTIEGRVECWDPRTRNRVGLLDCALNSVTADSEINSLPTISALKFNGALTMAVGTTTGQVLLYDLRSDKPLLVKDHQYGLPIKSVHFQDSLDLILSADSRIVKMWNKNSGKIFTSLEPEHDLNDVCLYPNSGMLLTANETPKMGIYYIPVLGPAPRWCSFLDNLTEELEENPESTVYDDYKFVTKKDLENLGLTHLIGSPFLRAYMHGFFMDIRLYHKVKLMVNPFAYEEYRKDKIRQKIEETRAQRVQLKKLPKVNKELALKLIEEEEEKQKSTWKKKVKSLPNILT
modifications: Delta number assigned from the order of the constructs in the methods (fifth: 1-481, lacking NUC153); tag omitted. Exon 1 with the polyQ tract (18-38, 21Q) repeated to 110Q, as in the assayed protein name. The plasmid is called 103Q, so the repeat count is ambiguous. GST omitted.
- Kd (GST-Htt-110Q): 0.424 nM

B3: full-length human PQBP5 (His-tag fusion protein) (natural protein)
chain: MQVSSLNEVKIYSLSCGKSLPEWLSDRKKRALQKKDVDVRRRIELIQDFEMPTVCTTIKVSKDGQYILATGTYKPRVRCYDTYQLSLKFERCLDSEVVTFEILSDDYSKIVFLHNDRYIEFHSQSGFYYKTRIPKFGRDFSYHYPSCDLYFVGASSEVYRLNLEQGRYLNPLQTDAAENNVCDINSVHGLFATGTIEGRVECWDPRTRNRVGLLDCALNSVTADSEINSLPTISALKFNGALTMAVGTTTGQVLLYDLRSDKPLLVKDHQYGLPIKSVHFQDSLDLILSADSRIVKMWNKNSGKIFTSLEPEHDLNDVCLYPNSGMLLTANETPKMGIYYIPVLGPAPRWCSFLDNLTEELEENPESTVYDDYKFVTKKDLENLGLTHLIGSPFLRAYMHGFFMDIRLYHKVKLMVNPFAYEEYRKDKIRQKIEETRAQRVQLKKLPKVNKELALKLIEEEEEKQKSTWKKKVKSLPNILTDDRFKVMFENPDFQVDEESEEFRLLNPLVSKISEKRKKKLRLLEQQELREKEEEEEPEGKPSDAESSESSDDEKAWVEEVRKQRRLLQQEEKVKRQERLKEDQQTVLKPQFYEIKAGEEFRSFKDSATKQKLMNKTLEDRLKIEAKNGTLSVSDTTVGSKQLTFTLKRSEQQKKQQEAEKLHRQERKRLRRSAGHLKSRHKRGRSFH
modifications: Exon 1 with the polyQ tract (18-38, 21Q) repeated to 110Q, as in the assayed protein name. The plasmid is called 103Q, so the repeat count is ambiguous. GST omitted.
- Kd (GST-Htt-110Q): 0.00362 nM

B4: PQBP5-Δ1 (protein)
chain: B1 chain
modifications: Delta number assigned from the order of the constructs in the methods; initiator Met from the primer and tag omitted. Exon 1 with the polyQ tract (18-38, 21Q) repeated to 110Q, as in the assayed protein name. The plasmid is called 103Q, so the repeat count is ambiguous. GST omitted.
- Kd (GST-Htt-110Q): 2.11 nM
